Row | Protein | relative cleavage efficiency (fusion protein PRK) [%] | relative cleavage efficiency (fusion protein PRH) | relative cleavage efficiency (fusion protein PRE) | relative cleavage efficiency (fusion protein PRC) [%] | relative cleavage efficiency (fusion protein PRP) | relative cleavage efficiency (fusion protein PRW) | relative cleavage efficiency (fusion protein PRG) | relative cleavage efficiency (fusion protein PRA) [%] | relative cleavage efficiency (fusion protein PRL) | relative cleavage efficiency (fusion protein PRI) [%] | relative cleavage efficiency (fusion protein PRF) [%] | relative cleavage efficiency (fusion protein PRR) [%] | relative cleavage efficiency (fusion protein PRY) [%] | relative cleavage efficiency (fusion protein PRM) [%] | relative cleavage efficiency (fusion protein PRQ) | relative cleavage efficiency (fusion protein PRN) [%] | relative cleavage efficiency (fusion protein PRT) [%] | relative cleavage efficiency (fusion protein PRS) [%] | relative cleavage efficiency (fusion protein PRD)
1 | OmpT protease variant OmpT D97F (protein) STETLSFTPDNINADISLGTLSGKTKERVYLAEEGGRKVSQLDWKFNNAAIIKGAINWDLMPQISIGAAGWTTLGSRGGNMVDQDWMDSSNPGTWTFESRHPDTQLNYANEFDLNIKGWLLNEPNYRLGLMAGYQESRYSFTARGGSYIYSSEEGFRDDIGSFPNGERAIGYKQRFKMPYIGLTGSYRYEDFELGGTFKYSGWVESSDNDEHYDPGKRITYRSKVKDQNYYSVAVNAGYYVTPNAKVYVEGAWNRVTNKKGNTSLYDHNNNTSDYSKNGAGIENYNFITTAGLKYTF | < 3 | less than 3% | less than 3% | < 3 | less than 3% | less than 3% | less than 3% | 3.1 | less than 3% | < 3 | < 3 | < 3 | < 3 | < 3 | less than 3% | < 3 | < 3 | < 3 | less than 3%
2 | OmpT protease variant OmpT D97S (protein) STETLSFTPDNINADISLGTLSGKTKERVYLAEEGGRKVSQLDWKFNNAAIIKGAINWDLMPQISIGAAGWTTLGSRGGNMVDQDWMDSSNPGTWTSESRHPDTQLNYANEFDLNIKGWLLNEPNYRLGLMAGYQESRYSFTARGGSYIYSSEEGFRDDIGSFPNGERAIGYKQRFKMPYIGLTGSYRYEDFELGGTFKYSGWVESSDNDEHYDPGKRITYRSKVKDQNYYSVAVNAGYYVTPNAKVYVEGAWNRVTNKKGNTSLYDHNNNTSDYSKNGAGIENYNFITTAGLKYTF | < 3 | less than 3% | less than 3% | 3.1 | less than 3% | less than 3% | less than 3% | 4 | less than 3% | < 3 | < 3 | < 3 | < 3 | < 3 | less than 3% | < 3 | < 3 | < 3 | less than 3%
3 | OmpT protease variant OmpT D97C (protein) STETLSFTPDNINADISLGTLSGKTKERVYLAEEGGRKVSQLDWKFNNAAIIKGAINWDLMPQISIGAAGWTTLGSRGGNMVDQDWMDSSNPGTWTCESRHPDTQLNYANEFDLNIKGWLLNEPNYRLGLMAGYQESRYSFTARGGSYIYSSEEGFRDDIGSFPNGERAIGYKQRFKMPYIGLTGSYRYEDFELGGTFKYSGWVESSDNDEHYDPGKRITYRSKVKDQNYYSVAVNAGYYVTPNAKVYVEGAWNRVTNKKGNTSLYDHNNNTSDYSKNGAGIENYNFITTAGLKYTF | 3.9 | less than 3% | less than 3% | 4.8 | less than 3% | less than 3% | less than 3% | 6.2 | less than 3% | < 3 | 4.6 | 4 | < 3 | < 3 | less than 3% | < 3 | < 3 | 5.6 | less than 3%
4 | OmpT protease variant OmpT D97N (protein) STETLSFTPDNINADISLGTLSGKTKERVYLAEEGGRKVSQLDWKFNNAAIIKGAINWDLMPQISIGAAGWTTLGSRGGNMVDQDWMDSSNPGTWTNESRHPDTQLNYANEFDLNIKGWLLNEPNYRLGLMAGYQESRYSFTARGGSYIYSSEEGFRDDIGSFPNGERAIGYKQRFKMPYIGLTGSYRYEDFELGGTFKYSGWVESSDNDEHYDPGKRITYRSKVKDQNYYSVAVNAGYYVTPNAKVYVEGAWNRVTNKKGNTSLYDHNNNTSDYSKNGAGIENYNFITTAGLKYTF | < 3 | less than 3% | less than 3% | < 3 | less than 3% | less than 3% | less than 3% | 3.8 | less than 3% | < 3 | < 3 | < 3 | < 3 | < 3 | less than 3% | < 3 | < 3 | 4.1 | less than 3%
5 | OmpT protease variant OmpT D97T (protein) STETLSFTPDNINADISLGTLSGKTKERVYLAEEGGRKVSQLDWKFNNAAIIKGAINWDLMPQISIGAAGWTTLGSRGGNMVDQDWMDSSNPGTWTTESRHPDTQLNYANEFDLNIKGWLLNEPNYRLGLMAGYQESRYSFTARGGSYIYSSEEGFRDDIGSFPNGERAIGYKQRFKMPYIGLTGSYRYEDFELGGTFKYSGWVESSDNDEHYDPGKRITYRSKVKDQNYYSVAVNAGYYVTPNAKVYVEGAWNRVTNKKGNTSLYDHNNNTSDYSKNGAGIENYNFITTAGLKYTF | < 3 | less than 3% | less than 3% | 4.6 | less than 3% | less than 3% | less than 3% | 6.8 | less than 3% | < 3 | 3.7 | < 3 | < 3 | < 3 | less than 3% | < 3 | < 3 | 7.4 | less than 3%

Chain of fusion protein PRL (chain, as listed by the source): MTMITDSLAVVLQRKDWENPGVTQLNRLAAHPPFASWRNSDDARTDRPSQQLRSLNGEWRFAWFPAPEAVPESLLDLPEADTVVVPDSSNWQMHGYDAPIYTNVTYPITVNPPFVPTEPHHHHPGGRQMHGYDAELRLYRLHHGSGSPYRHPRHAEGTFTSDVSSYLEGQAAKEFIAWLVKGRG
Chain of fusion protein PRQ (chain, as listed by the source): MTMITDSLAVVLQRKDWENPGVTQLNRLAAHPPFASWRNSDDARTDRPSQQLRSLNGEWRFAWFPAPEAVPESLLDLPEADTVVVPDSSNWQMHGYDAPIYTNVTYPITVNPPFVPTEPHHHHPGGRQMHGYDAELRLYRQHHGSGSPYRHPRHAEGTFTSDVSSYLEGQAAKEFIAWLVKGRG
Chain of fusion protein PRD (chain, as listed by the source): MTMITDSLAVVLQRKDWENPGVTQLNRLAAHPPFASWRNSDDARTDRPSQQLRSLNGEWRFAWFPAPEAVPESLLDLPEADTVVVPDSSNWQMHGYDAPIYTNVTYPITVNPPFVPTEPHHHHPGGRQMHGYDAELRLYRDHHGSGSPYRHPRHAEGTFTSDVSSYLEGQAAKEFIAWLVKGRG
Chain of fusion protein PRK (chain, as listed by the source): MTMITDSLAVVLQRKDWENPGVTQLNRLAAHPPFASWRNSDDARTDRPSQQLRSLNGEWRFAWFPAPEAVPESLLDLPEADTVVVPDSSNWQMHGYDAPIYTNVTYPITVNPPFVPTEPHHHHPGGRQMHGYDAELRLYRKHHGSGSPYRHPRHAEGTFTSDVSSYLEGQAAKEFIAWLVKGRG
Chain of fusion protein PRW (chain, as listed by the source): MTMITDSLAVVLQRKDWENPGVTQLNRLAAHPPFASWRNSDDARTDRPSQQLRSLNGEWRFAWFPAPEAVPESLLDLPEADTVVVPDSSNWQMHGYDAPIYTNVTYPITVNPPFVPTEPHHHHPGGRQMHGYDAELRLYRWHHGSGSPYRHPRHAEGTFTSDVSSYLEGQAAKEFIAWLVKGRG
Chain of fusion protein PRM (chain, as listed by the source): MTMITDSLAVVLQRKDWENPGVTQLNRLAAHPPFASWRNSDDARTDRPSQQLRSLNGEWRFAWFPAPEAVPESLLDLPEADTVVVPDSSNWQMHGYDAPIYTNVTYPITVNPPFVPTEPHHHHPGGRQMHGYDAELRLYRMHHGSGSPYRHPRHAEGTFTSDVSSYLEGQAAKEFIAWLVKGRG
Chain of fusion protein PRC (chain, as listed by the source): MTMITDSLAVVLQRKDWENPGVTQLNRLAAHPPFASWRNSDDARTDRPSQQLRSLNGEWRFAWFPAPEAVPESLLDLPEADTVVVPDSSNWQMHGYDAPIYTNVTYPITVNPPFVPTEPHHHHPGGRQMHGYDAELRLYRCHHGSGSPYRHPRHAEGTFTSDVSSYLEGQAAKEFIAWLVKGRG
Chain of fusion protein PRS (chain, as listed by the source): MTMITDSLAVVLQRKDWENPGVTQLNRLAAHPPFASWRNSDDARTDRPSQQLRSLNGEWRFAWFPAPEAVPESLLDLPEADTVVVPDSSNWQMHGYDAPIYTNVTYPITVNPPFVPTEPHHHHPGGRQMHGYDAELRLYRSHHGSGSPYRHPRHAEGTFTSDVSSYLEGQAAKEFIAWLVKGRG
Chain of fusion protein PRN (chain, as listed by the source): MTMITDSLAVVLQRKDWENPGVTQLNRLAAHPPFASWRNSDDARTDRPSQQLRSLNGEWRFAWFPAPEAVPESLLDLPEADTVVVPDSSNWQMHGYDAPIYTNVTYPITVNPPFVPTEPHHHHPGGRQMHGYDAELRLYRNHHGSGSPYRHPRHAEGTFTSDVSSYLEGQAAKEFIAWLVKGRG
Chain of fusion protein PRT (chain, as listed by the source): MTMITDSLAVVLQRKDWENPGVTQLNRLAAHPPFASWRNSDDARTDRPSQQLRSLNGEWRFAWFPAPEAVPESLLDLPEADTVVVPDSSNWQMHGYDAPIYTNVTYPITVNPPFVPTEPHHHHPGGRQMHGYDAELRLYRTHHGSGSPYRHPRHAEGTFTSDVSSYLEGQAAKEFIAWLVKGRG
Chain of fusion protein PRF (chain, as listed by the source): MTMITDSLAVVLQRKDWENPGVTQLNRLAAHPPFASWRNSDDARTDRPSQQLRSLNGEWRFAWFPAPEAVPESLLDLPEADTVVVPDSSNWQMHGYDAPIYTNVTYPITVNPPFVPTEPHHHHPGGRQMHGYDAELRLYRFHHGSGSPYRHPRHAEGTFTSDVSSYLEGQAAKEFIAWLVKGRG
Chain of fusion protein PRH (chain, as listed by the source): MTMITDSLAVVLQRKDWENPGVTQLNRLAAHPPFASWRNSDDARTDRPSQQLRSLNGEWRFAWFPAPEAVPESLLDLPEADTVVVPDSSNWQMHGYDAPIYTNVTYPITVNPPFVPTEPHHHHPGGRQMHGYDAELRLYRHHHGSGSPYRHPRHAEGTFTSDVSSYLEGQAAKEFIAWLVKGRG
Chain of fusion protein PRR (chain, as listed by the source): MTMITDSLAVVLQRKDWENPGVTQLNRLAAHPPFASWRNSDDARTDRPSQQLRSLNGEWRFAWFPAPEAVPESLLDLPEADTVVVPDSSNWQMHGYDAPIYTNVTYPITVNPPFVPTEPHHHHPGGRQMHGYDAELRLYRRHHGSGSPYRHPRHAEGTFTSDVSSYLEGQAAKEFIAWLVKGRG
Chain of fusion protein PRI (chain, as listed by the source): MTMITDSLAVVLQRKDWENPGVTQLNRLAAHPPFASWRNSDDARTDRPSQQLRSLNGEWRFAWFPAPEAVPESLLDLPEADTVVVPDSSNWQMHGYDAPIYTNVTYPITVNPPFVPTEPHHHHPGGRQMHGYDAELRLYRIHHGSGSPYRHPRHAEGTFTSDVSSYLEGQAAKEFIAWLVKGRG
Chain of fusion protein PRE (chain, as listed by the source): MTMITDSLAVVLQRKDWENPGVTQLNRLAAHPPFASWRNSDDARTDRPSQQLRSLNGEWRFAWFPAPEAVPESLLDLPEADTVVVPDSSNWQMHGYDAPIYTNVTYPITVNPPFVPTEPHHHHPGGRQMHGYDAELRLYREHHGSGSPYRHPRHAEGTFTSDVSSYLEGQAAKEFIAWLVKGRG
Chain of fusion protein PRY (chain, as listed by the source): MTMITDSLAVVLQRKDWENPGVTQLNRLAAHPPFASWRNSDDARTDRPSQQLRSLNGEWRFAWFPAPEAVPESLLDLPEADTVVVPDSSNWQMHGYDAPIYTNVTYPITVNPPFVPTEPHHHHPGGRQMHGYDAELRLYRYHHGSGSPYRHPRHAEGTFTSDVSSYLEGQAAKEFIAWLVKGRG
Chain of fusion protein PRA (chain, as listed by the source): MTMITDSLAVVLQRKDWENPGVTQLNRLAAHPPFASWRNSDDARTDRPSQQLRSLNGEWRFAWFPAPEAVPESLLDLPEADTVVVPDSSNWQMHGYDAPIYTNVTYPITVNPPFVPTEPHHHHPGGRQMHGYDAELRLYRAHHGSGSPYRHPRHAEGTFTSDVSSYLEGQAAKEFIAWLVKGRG
Chain of fusion protein PRG (chain, as listed by the source): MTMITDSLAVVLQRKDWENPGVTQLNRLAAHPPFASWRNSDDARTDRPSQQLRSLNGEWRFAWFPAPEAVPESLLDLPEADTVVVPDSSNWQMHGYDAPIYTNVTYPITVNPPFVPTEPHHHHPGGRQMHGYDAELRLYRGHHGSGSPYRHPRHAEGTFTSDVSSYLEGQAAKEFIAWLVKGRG
